How the values were obtained:
Hex^RS ES cells [1] = assay: ADE (H+C+) induction, serum-free adherent monolayer culture, flow cytometry, RT-PCR and immunostaining; assay type: cell-based; conditions: monolayer culture
Description: For ADE induction under serum-free conditions in adherent monolayer culture, ES cells were seeded onto gelatin coated 3 cm 6 well dishes (Iwaki) at a density of 1×10^4 cells/ml in N2B27 medium (StemCellSciences) supplemented with 10 ng/ml Bmp4, 20 ng/ml activin A and 10 ng/ml Fgf4. Following 2 days of culture the media was replaced with SF03 culture medium (Tada 2005) supplemented with 20 ng/ml activin A, 10 ng/ml Fgf4 and 20 ng/ml EGF. The media was replaced 2 days later and then every 3 days for the duration of the experiment. For some experiments 1×10^−5M all-trans retinoic acid, 100 ng/ml PD173074 and 3 μM CHIR99021 were added to the culture at the indicated timepoints.
(§1) FITC-conjugated rat anti-CD184 (CXCR4), FITC-conjugated rat anti-CD31 and FITC conjugated rat anti-CD45 were purchased from BD Pharmingen. EBs generated under various different differentiation conditions were dissociated by treatment with cell dissociation buffer (PBS based) (GIBCO-BRL). Cells were washed in PBS supplemented with 10% FCS (FB) and resuspended at a maximum density of 5×10^6 cells/ml. For surface staining 200 μl of cells were plated in a V shape 96 well polystyrene plate (Sterilin) in PBS supplemented with 1% serum of the species in which the antibody was manufactured. The FITC-conjugated antibody or a FITC-conjugated isotype control was added at a 1:100 dilution. Cells were incubated in the dark for 20 mins, washed 3 times with FB and resuspended in FB supplemented with Topro3-iodide (Invitrogen) to exclude dead cell from the analysis. Cells were analysed using a FACS Calibur (BD Biosciences) or sorted using a MoFlo MLS flow cytometer (DakoCytomation).
Total RNA was prepared from a minimum of 1×10^4 cells from sorted cell fractions, EBs, monolayer differentiated cells or ES cells using Trizol reagent (Invitrogen). 1 μg of RNA was used as a template for cDNA synthesis using Superscript III (Invitrogen). Real-time RT-PCR was performed using a LightCycler 480 (Roche) and LightCycler 480 SYBR Green 1 Master (Roche). The following cycling conditions were used: denaturation: 95° C. 5 sec, amplification: 95° C. 5 sec, 58° C. 10 sec, 72° C. 20 sec (45 cycles), 81° C. 1 sec, melt: 95° C. 1 sec, 65° C. 10 sec, 95° C. −ramp 5 C per sec continuous, cool: […] 10 sec. Standard curves were generated from plasmid. Samples were normalized to β-actin or TATA-box binding protein (TBP) expression levels.
Sorted cells were seeded onto gelatin coated 24 well dishes (Iwaki). Adherence of cells to the substrate was enhanced by centrifugation at 1200 rpm for 3 mins. Sorted cells, monolayer differentiated cells and ES cells were washed in PBS, fixed in 4% paraformaldehyde for 10 mins and permeabilised by washing in PBS supplemented with 0.1% Triton X (PBST). Cells were treated with a blocking reagent (3% serum of same species as secondary antibody, 1% BSA in PBST) for 15 min before incubation with the primary antibody at 4° C. overnight. The cells were washed with PBST and incubated with the appropriate fluorescence-tagged secondary antibody for 2 hr at room temperature. The cells were washed with PBST and DAPI added during the final wash. The following primary antibodies were used, all are anti-mouse: anti-Oct3/4, anti-HNF-3β (Foxa2), anti-HNF-4α (Santa Cruz), anti-Cer11 (R&D), anti-E-cadherin (Takara Bio Inc) anti-alpha fetoprotein (NeoMarkers), anti-albumin (Bethyl laboratories inc). Anti-Pdx1 was a gift from P. Serup. […]
(§2) FITC-conjugated rat anti-CD184 (Cxcr4), FITC-conjugated rat anti-CD31 and FITC conjugated rat anti-CD45 were purchased from BD Pharmingen. Cells were stained with Topro3-iodide (Invitrogen) to exclude dead cells from the analysis. Cells were analysed using a FACS Calibur (BD Biosciences) or sorted using a MoFlo MLS flow cytometer (DakoCytomation).

Hex^RS ES cells [2] = assay: ADE (H+C+) induction, serum-free suspension (aggregation) culture, flow cytometry; assay type: cell-based; conditions: added during the first two days; serum-free, aggregation and monolayer (Table 7)
Description: For ADE induction under serum-free conditions in suspension culture, ES cells were seeded onto non-coated 10 cm Petri dishes at 5×10^3 cells/ml in N2B27 culture medium supplemented with 10 ng/ml Bmp4 and 20 ng/ml activin A. Following 2 days of culture the resulting EBs were harvested as above and replated on non-coated Petri dishes at the same density in SF03 culture medium (ref Tada 2005) supplemented with 20 ng/ml activin A and 20 ng/ml EGF. The media was replaced 2 days later and then every 3 days for the duration of the experiment. For some experiments 10 ng/ml Fgf4 (R&D), 10 ng/ml Bmp4, 20 ng/ml Activin A, 1×10^−5M all-trans retinoic acid, 100 ng/ml PD173074 (Sigma), 20 ng/ml EGF and 3 μM CHIR99021 were added to the culture at the indicated timepoints.
as §1, with “(DakoCytomation). […]” for “(DakoCytomation).”
FITC-conjugated rat anti-CD184 (Cxcr4), FITC-conjugated rat anti-CD31 and FITC conjugated rat anti-CD45 were purchased from BD Pharmingen. […] Cells were analysed using a FACS Calibur (BD Biosciences) or sorted using a MoFlo MLS flow cytometer (DakoCytomation).

Hex^RS ES cells [3] = assay: ADE (H+C+) induction, two-step suspension (embryoid body) differentiation with serum day 0-2, flow cytometry for RS and Cxcr4; assay type: cell-based, mouse
Description: ADE was induced under serum-containing conditions using a 2-step protocol. ES cells were seeded onto non-coated 10 cm petri dishes (sterilin) at a density of 5×10^3 cells/ml in Glasgow minimum essential medium (G-MEM; GIBCO-BRL) supplemented with 10% fetal calf serum (FCS), 0.1 mM nonessential amino acids (GIBCO-BRL), 1 mM sodium pyruvate, 2 mM glutamine and 0.1 mM 2-mercaptoethanol (2ME). Following 2 days of culture the resulting embryoid bodies (EBs) were harvested by centrifugation at 500 rpm for 1 min and replated on 10 cm non-coated petri dishes at the same density in N2B27 culture medium (StemCellSciences) supplemented with 20 ng/ml activin A (R&D). The media was replaced 2 days later and then every 3 days for the duration of the experiment. For some experiments 20 ng/ml EGF, 10 ng/ml Bmp4, 20 ng/ml activin A (R&D), 1×10^−5M all-trans retinoic acid (Sigma) and 3 μM CHIR99021 (a gift from StemCellSciences) were added to the culture at the indicated timepoints.
as §1
Mouse ES cells were cultured according to Li et al., (1995). ADE was induced under serum-containing conditions using a 2-step protocol. ES cells were seeded onto non-coated 10 cm petri dishes (Sterilin) at a density of 5×10^3 cells/ml in GMEM supplemented as described in Li et al., (1995) except in the absence of LIF. EBs were harvested after two days by centrifugation and replated in N2B27 medium (StemCellSciences) supplemented with 20 ng/ml activin A (R&D) and 20 ng/ml EGF (R&D). This media was replaced again two days later. 10 ng/ml BMP4, 20 ng/ml activin A (R&D) and 1×10^−5M all-trans retinoic acid (Sigma) were added where indicated.
as §2

B1: Bmp4: bone morphogenetic protein, 10 ng/ml (protein, UniProt P12644 293-408, looked up)
Bone morphogenetic protein 4: SPKHHSQRARKKNKNCRRHSLYVDFSDVGWNDWIVAPPGYQAFYCHGDCPFPLADHLNSTNHAIVQTLVNSVNSSIPKACCVPTELSAISMLYLDEYDKVVLKNYQEMVVEGCGCR
H+C+ percentage (Hex^RS ES cells [1]): increased
total number of surviving cells at the end of the 7 day differentiation (Hex^RS ES cells [2]): significantly increased
induction of the RS positive population (Hex^RS ES cells [3]; added either at day 0 or day 3 (Table 2)): completely blocked
CXCR4 induction (Hex^RS ES cells [3]; added either at day 0 or day 3, data not shown): without effecting

— patent US9005962B2, “Regionalised endoderm cells and uses thereof” (The University Court of the University of Edinburgh, priority 2007, dated 2015)
